Reference: PMC9821441, “Quick and Spontaneous Transformation between [3Fe–4S] and [4Fe–4S] Iron–Sulfur Clusters in the tRNA-Thiolation Enzyme TtuA” (International Journal of Molecular Sciences, 2023)

Target: T1, [4Fe–4S]-TtuA (tRNA-thiolation enzyme TtuA from Thermus thermophilus HB27, reconstituted with a [4Fe–4S] … (Thermus thermophilus (HB27 strain), UniProt Q72LF3 1-321)
T1 construct: TtuA, tRNA-thiolation enzyme, Thermus thermophilus HB27; Carries a [4Fe–4S] cluster with the unique (non-cysteine-chelated) Fe; same polypeptide as m2, only the cofactor differs; also called TthTtuA; reconstituted TtuA; source: [4Fe–4S] reconstituted with DTT, FeCl3 and Na2S
T1 sequence (looked up): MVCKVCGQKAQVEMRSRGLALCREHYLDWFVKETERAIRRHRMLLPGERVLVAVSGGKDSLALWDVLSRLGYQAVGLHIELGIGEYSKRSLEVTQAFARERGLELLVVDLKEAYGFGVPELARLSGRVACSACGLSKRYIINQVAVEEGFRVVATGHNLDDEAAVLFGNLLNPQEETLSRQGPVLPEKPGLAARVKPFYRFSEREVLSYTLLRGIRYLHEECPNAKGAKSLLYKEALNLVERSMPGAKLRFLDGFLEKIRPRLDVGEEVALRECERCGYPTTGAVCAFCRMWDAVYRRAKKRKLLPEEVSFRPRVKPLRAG
Experiment: EPR spectroscopy; TtuA mixed with TtuB–COSH to a final concentration of 0.5 mM, 25 °C for 5 min, strictly anaerobic; then 5-fold molar excess dithionite, 25 °C for 10 min, frozen; CW X-band EPR (~9.59 GHz) at 12 K for [4Fe–4S]1+ and 40 K for [3Fe–4S]1+; reads the Fe–S cluster only
Settings: both partners purified

- binding result: binds
B1: TtuB–COSH (sulfur donor protein TtuB from Thermus thermophilus HB27 with a C-terminal thiocarboxylate) (natural protein, Thermus thermophilus (HB27 strain), UniProt Q72LF4 1-65, looked up)
chain: MRVVLRLPERKEVEVKGNRPLREVLEELGLNPETVVAVRGEELLTLEDEVREEDTLEVLSAISGG
modifications: not fully specified (C-terminus)
notes: TtuB, sulfur donor (sulfur carrier) protein, Thermus thermophilus HB27; source: E. coli B834 (DE3), pTYB1, purified on chitin resin; intein cleaved with 50 mM ammonium sulfide; not shown: intein, C-terminal, cleaved
